PMC7430982 (Proceedings of the National Academy of Sciences of the …, 2020)

How the values were obtained:
cross-linking = target: the molecule itself; experiment: cross-linking
cryo-EM structure = target: the molecule itself; experiment: cryo-EM structure
crystal structure = target: the molecule itself; experiment: crystal structure

Protein | crosslinking yield (cross-linking) | other results
NaAtm1 A527C (natural protein, disulfide between the two equivalent C527 residues of the dimer (crosslinking yield ~70%)) MPPETATNPKDARHDGWQTLKRFLPYLWPADNAVLRRRVVGAILMVLLGKATTLALPFAYKKAVDAMTLGGGAQPALTVALAFVLAYALGRFSGVLFDNLRNIVFERVGQDATRHLAENVFARLHKLSLRFHLARRTGEVTKVIERGTKSIDTMLYFLLFNIAPTVIELTAVIVIFWLNFGLGLVTATILAVIAYVWTTRTITEWRTHLREKMNRLDGQALARAVDSLLNYETVKYFGAESREEARYASAARAYADAAVKSENSLGLLNIAQALIVNLLMAGAMAWTVYGWSQGKLTVGDLVFVNTYLTQLFRPLDMLGMVYRTIRQGLIDMAEMFRLIDTHIEVADVPNAPALVVNRPSVTFDNVVFGYDRDREILHGLSFEVAAGSRVAIVGPSGAGKSTIARLLFRFYDPWEGRILIDGQDIAHVTQTSLRAALGIVPQDSVLFNDTIGYNIAYGRDGASRAEVDAAAKGAAIADFIARLPQGYDTEVGERGLKLSGGEKQRVAIARTLVKNPPILLFDEATSCLDTRTEQDILSTMRAVASHRTTISIAHRLSTIADSDTILVLDQGRLAEQGSHLDLLRRDGLYAEMWARQAAESAEVSEAAE | ~70% | 
NaAtm1 (ABC transporter of mitochondria homolog from Novosphingobium aromaticivorans), wild type (natural protein) MPPETATNPKDARHDGWQTLKRFLPYLWPADNAVLRRRVVGAILMVLLGKATTLALPFAYKKAVDAMTLGGGAQPALTVALAFVLAYALGRFSGVLFDNLRNIVFERVGQDATRHLAENVFARLHKLSLRFHLARRTGEVTKVIERGTKSIDTMLYFLLFNIAPTVIELTAVIVIFWLNFGLGLVTATILAVIAYVWTTRTITEWRTHLREKMNRLDGQALARAVDSLLNYETVKYFGAESREEARYASAARAYADAAVKSENSLGLLNIAQALIVNLLMAGAMAWTVYGWSQGKLTVGDLVFVNTYLTQLFRPLDMLGMVYRTIRQGLIDMAEMFRLIDTHIEVADVPNAPALVVNRPSVTFDNVVFGYDRDREILHGLSFEVAAGSRVAIVGPSGAGKSTIARLLFRFYDPWEGRILIDGQDIAHVTQTSLRAALGIVPQDSVLFNDTIGYNIAYGRDGASRAEVDAAAKGAAIADFIARLPQGYDTEVGERGLKLSGGEKQRVAIARTLVKNPPILLFDEATSALDTRTEQDILSTMRAVASHRTTISIAHRLSTIADSDTILVLDQGRLAEQGSHLDLLRRDGLYAEMWARQAAESAEVSEAAE |  | binding result (cryo-EM structure): binds
NaAtm1 S526C (natural protein, disulfide between the two equivalent C526 residues of the dimer (crosslinking yield ~70%)) MPPETATNPKDARHDGWQTLKRFLPYLWPADNAVLRRRVVGAILMVLLGKATTLALPFAYKKAVDAMTLGGGAQPALTVALAFVLAYALGRFSGVLFDNLRNIVFERVGQDATRHLAENVFARLHKLSLRFHLARRTGEVTKVIERGTKSIDTMLYFLLFNIAPTVIELTAVIVIFWLNFGLGLVTATILAVIAYVWTTRTITEWRTHLREKMNRLDGQALARAVDSLLNYETVKYFGAESREEARYASAARAYADAAVKSENSLGLLNIAQALIVNLLMAGAMAWTVYGWSQGKLTVGDLVFVNTYLTQLFRPLDMLGMVYRTIRQGLIDMAEMFRLIDTHIEVADVPNAPALVVNRPSVTFDNVVFGYDRDREILHGLSFEVAAGSRVAIVGPSGAGKSTIARLLFRFYDPWEGRILIDGQDIAHVTQTSLRAALGIVPQDSVLFNDTIGYNIAYGRDGASRAEVDAAAKGAAIADFIARLPQGYDTEVGERGLKLSGGEKQRVAIARTLVKNPPILLFDEATCALDTRTEQDILSTMRAVASHRTTISIAHRLSTIADSDTILVLDQGRLAEQGSHLDLLRRDGLYAEMWARQAAESAEVSEAAE | ~70% | 
NaAtm1 E523Q (ATP-hydrolysis-deficient Walker-B mutant) (natural protein) MPPETATNPKDARHDGWQTLKRFLPYLWPADNAVLRRRVVGAILMVLLGKATTLALPFAYKKAVDAMTLGGGAQPALTVALAFVLAYALGRFSGVLFDNLRNIVFERVGQDATRHLAENVFARLHKLSLRFHLARRTGEVTKVIERGTKSIDTMLYFLLFNIAPTVIELTAVIVIFWLNFGLGLVTATILAVIAYVWTTRTITEWRTHLREKMNRLDGQALARAVDSLLNYETVKYFGAESREEARYASAARAYADAAVKSENSLGLLNIAQALIVNLLMAGAMAWTVYGWSQGKLTVGDLVFVNTYLTQLFRPLDMLGMVYRTIRQGLIDMAEMFRLIDTHIEVADVPNAPALVVNRPSVTFDNVVFGYDRDREILHGLSFEVAAGSRVAIVGPSGAGKSTIARLLFRFYDPWEGRILIDGQDIAHVTQTSLRAALGIVPQDSVLFNDTIGYNIAYGRDGASRAEVDAAAKGAAIADFIARLPQGYDTEVGERGLKLSGGEKQRVAIARTLVKNPPILLFDQATSALDTRTEQDILSTMRAVASHRTTISIAHRLSTIADSDTILVLDQGRLAEQGSHLDLLRRDGLYAEMWARQAAESAEVSEAAE |  | binding result (crystal structure): binds
